US20180030151A1 (MOGAM INSTITUTE FOR BIOMEDICAL RESEARCH, published 2018)
Substitutions are numbered along the chain they refer to. Read-outs that look alike come from different tables or passages of the source. One block for each binder: values may come before it.

Legend:
[1] = molecular target: T1, recombinant human TFPI (tissue factor pathway inhibitor) (human, UniProt P10646 29-304); experiment: cell-based or functional assay
[2] = molecular target: T1, recombinant human TFPI (tissue factor …); experiment: cell-based or functional assay; remark: listed apart in the source
[3] = molecular target: T1, recombinant human TFPI (tissue factor …); experiment: cell-based or functional assay; remark: listed apart in the source
[4] = molecular target: T1, recombinant human TFPI (tissue factor …); experiment: cell-based or functional assay; remark: listed apart in the source
[5] = molecular target: T1, recombinant human TFPI (tissue factor …); experiment: SPR, Biacore T-200; IgG captured on protein A (CM5), TFPI as analyte
Procedure: Dissociation of the TFPI associated with the antibody was induced by running 10 mM glycine-HCl (pH 1.5) at a flow rate for 30 seconds. The affinities in terms of kinetic rate constants (Kₒₙ and Koff) and equilibrium dissociation constant (KD) were evaluated using Biacore T-200 evaluation software, and the results are shown in Table 24 below.

[6] = molecular target: TFPI in FVIII-deficient plasma (sample dilution); experiment: cell-based or functional assay
[7] = molecular target: T1, recombinant human TFPI (tissue factor …); experiment: cell-based or functional assay; remark: listed apart in the source
[8] = molecular target: T1, recombinant human TFPI (tissue factor …); experiment: cell-based or functional assay; remark: listed apart in the source
[9] = molecular target: T1, recombinant human TFPI (tissue factor …); experiment: SPR, Biacore T-200; TFPI immobilised on CM5 chip, IgG as analyte
Procedure: 10 mM of glycine-HCl (pH 1.5) was run at a flow rate of 30 μL/min for 30 seconds, thereby inducing the dissociation of the antibody associated with the TFPI. The affinity in terms of kinetic rate constants (Kₒₙ and Koff) and equilibrium dissociation constant

[10] = molecular target: T1, recombinant human TFPI (tissue factor …); experiment: cell-based or functional assay; remark: listed apart in the source
[11] = molecular target: T1, recombinant human TFPI (tissue factor …); experiment: cell-based or functional assay; remark: listed apart in the source
[12] = molecular target: T1, recombinant human TFPI (tissue factor …); experiment: cell-based or functional assay; remark: listed apart in the source

B1: clone 3241 (antibody, V domains shown)
VH: EVQLVESGGGLVKPGGSLRLSCAASGFTFSSYAMNWVRQAPGKGLEWVSTITTGGSYTYYADSVEGRFTISRDNAKNSLYLQMNSLRAEDTAVYYCARQDGNFLMDYWGQGTLVTVSS
VL: DVVMTQTPLSLPVTLGQPASISCKSSQSLLDIDGKTYLNWLQQRPGQSPKRLIYLVSKLDSGVPDRFTGSGSGTDFTLKISRVEAEDVGVYYCWQGTHFPFTFGQGTKVEIKR
notes: scFv on yeast at selection; human IgG4/kappa IgG as purified; also called No. 3241 antibody
A405, TF/FVIIa/FX complex assay, Ab 1.56 nM [1]: 0.157
A405, TF/FVIIa/FX complex assay, Ab 3.13 nM [1]: 0.171
A405, TF/FVIIa/FX complex assay, Ab 6.25 nM [1]: 0.197
A405, TF/FVIIa/FX complex assay, Ab 12.5 nM [1]: 0.305
A405, TF/FVIIa/FX complex assay, Ab 25 nM [1]: 0.911
A405, TF/FVIIa/FX complex assay, Ab 50 nM [1]: 0.935
A405, TF/FVIIa/FX complex assay, Ab 100 nM [1]: 0.937
effect of inhibiting TFPI, FXa activity assay, Ab 10 nM [2]: ~83%
effect of inhibiting TFPI, FXa activity assay, Ab 20 nM [2]: ~82%
% of Normalized, TF/FVIIa/FX complex assay, Ab 1.56 nM [3]: 17.2%
% of Normalized, TF/FVIIa/FX complex assay, Ab 3.13 nM [3]: 18.7%
% of Normalized, TF/FVIIa/FX complex assay, Ab 6.25 nM [3]: 21.5%
% of Normalized, TF/FVIIa/FX complex assay, Ab 12.5 nM [3]: 33.3%
% of Normalized, TF/FVIIa/FX complex assay, Ab 25 nM [3]: 99.6%
% of Normalized, TF/FVIIa/FX complex assay, Ab 50 nM [3]: 102%
% of Normalized, TF/FVIIa/FX complex assay, Ab 100 nM [3]: 102%
FXa assay % of FXa alone, 2.5 nM Ab, 10 nM TFPI [4]: 11.2%
FXa assay % of FXa alone, 5 nM Ab, 10 nM TFPI [4]: 50.9%
FXa assay OD, 2.5 nM Ab, 10 nM TFPI [4]: 0.091
FXa assay OD, 5 nM Ab, 10 nM TFPI [4]: 0.413
FXa assay OD, 10 nM Ab, 10 nM TFPI [4]: 0.677
FXa assay OD, 20 nM Ab, 10 nM TFPI [4]: 0.665
Kd [5]: 0.074 nM

B2: clone 308 (antibody, V domains shown)
VH: B1 VH with E65K
VL: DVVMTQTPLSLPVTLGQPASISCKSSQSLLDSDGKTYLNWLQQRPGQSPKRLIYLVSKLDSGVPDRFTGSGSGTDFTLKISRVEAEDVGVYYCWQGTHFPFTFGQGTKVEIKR
notes: Humanized form of T417, IgG
ETP vs negative control, thrombin generation assay, Ab 2.5 nM [6]: 122%
thrombin peak vs blank, thrombin generation assay, Ab 2.5 nM [6]: 162%
TFPI inhibitory activity, FXa activity assay, Ab 10 nM [2]: ~58.2%
TFPI inhibitory activity, FXa activity assay, Ab 40 nM [2]: ~85.1%
TFPI inhibitory activity, TF/FVIIa/FXa complex assay, Ab 50 nM [2]: ~54.2%
TFPI inhibitory activity, TF/FVIIa/FXa complex assay, Ab 100 nM [2]: ~94.3%
FXa assay % of FXa alone, 0.625 nM Ab, 10 nM TFPI [7]: 5%
FXa assay % of FXa alone, 2.5 nM Ab, 10 nM TFPI [7]: 8%
FXa assay OD, 0.625 nM Ab, 10 nM TFPI [7]: 0.049 OD
FXa assay OD, 2.5 nM Ab, 10 nM TFPI [7]: 0.078 OD
FXa assay OD, 10 nM Ab, 10 nM TFPI [7]: 0.519 OD
FXa assay OD, 40 nM Ab, 10 nM TFPI [7]: 0.718 OD
TF/FVIIa/FXa assay % of 0 nM TFPI, 12.5 nM Ab, 50 nM TFPI [8]: 17.9%
TF/FVIIa/FXa assay % of 0 nM TFPI, 50 nM Ab, 50 nM TFPI [8]: 66.5%
TF/FVIIa/FXa assay % of 0 nM TFPI, 100 nM Ab, 50 nM TFPI [8]: 104%
TF/FVIIa/FXa assay OD, 12.5 nM Ab, 50 nM TFPI [8]: 0.143 OD
TF/FVIIa/FXa assay OD, 25 nM Ab, 50 nM TFPI [8]: 0.248 OD
TF/FVIIa/FXa assay OD, 50 nM Ab, 50 nM TFPI [8]: 0.533 OD
TF/FVIIa/FXa assay OD, 100 nM Ab, 50 nM TFPI [8]: 0.833 OD
Kd [9]: 0.05 nM

Further lines, results first:

effect of inhibiting TFPI, FXa activity assay, Ab 10 nM [2]: ~82%
effect of inhibiting TFPI, FXa activity assay, Ab 20 nM [2]: ~87%
FXa assay % of FXa alone, 2.5 nM Ab, 10 nM TFPI [10]: 7.3%
FXa assay % of FXa alone, 5 nM Ab, 10 nM TFPI [10]: 46.2%
FXa assay OD, 2.5 nM Ab, 10 nM TFPI [10]: 0.0605
FXa assay OD, 5 nM Ab, 10 nM TFPI [10]: 0.382
FXa assay OD, 10 nM Ab, 10 nM TFPI [10]: 0.676
FXa assay OD, 20 nM Ab, 10 nM TFPI [10]: 0.72
Kd [5]: 0.00947 nM
% of Normalized, TF/FVIIa/FX complex assay, Ab 1.56 nM [11]: 5.1%
% of Normalized, TF/FVIIa/FX complex assay, Ab 3.13 nM [11]: 6%
% of Normalized, TF/FVIIa/FX complex assay, Ab 6.25 nM [11]: 6.9%
% of Normalized, TF/FVIIa/FX complex assay, Ab 12.5 nM [11]: 10.7%
% of Normalized, TF/FVIIa/FX complex assay, Ab 25 nM [11]: 60%
% of Normalized, TF/FVIIa/FX complex assay, Ab 50 nM [11]: 99.4%
% of Normalized, TF/FVIIa/FX complex assay, Ab 100 nM [11]: 101%
A405, TF/FVIIa/FX complex assay, Ab 1.56 nM [12]: 0.043
A405, TF/FVIIa/FX complex assay, Ab 3.13 nM [12]: 0.051
A405, TF/FVIIa/FX complex assay, Ab 6.25 nM [12]: 0.059
A405, TF/FVIIa/FX complex assay, Ab 12.5 nM [12]: 0.091
A405, TF/FVIIa/FX complex assay, Ab 25 nM [12]: 0.509
A405, TF/FVIIa/FX complex assay, Ab 50 nM [12]: 0.843
A405, TF/FVIIa/FX complex assay, Ab 100 nM [12]: 0.859
B3: clone 1202 (antibody, V domains shown)
VH: B1 VH with S49G, E65D, Q82K
VL: B1 VL
notes: scFv on yeast at selection; human IgG4/kappa IgG as purified; also called No. 1202 antibody

effect of inhibiting TFPI, FXa activity assay, Ab 10 nM [2]: ~82%
effect of inhibiting TFPI, FXa activity assay, Ab 20 nM [2]: ~82%
FXa assay % of FXa alone, 2.5 nM Ab, 10 nM TFPI [10]: 7.4%
FXa assay % of FXa alone, 5 nM Ab, 10 nM TFPI [10]: 38.8%
FXa assay OD, 2.5 nM Ab, 10 nM TFPI [10]: 0.0615
FXa assay OD, 5 nM Ab, 10 nM TFPI [10]: 0.321
FXa assay OD, 10 nM Ab, 10 nM TFPI [10]: 0.68
FXa assay OD, 20 nM Ab, 10 nM TFPI [10]: 0.678
Kd [5]: 0.00819 nM
% of Normalized, TF/FVIIa/FX complex assay, Ab 1.56 nM [11]: 4.8%
% of Normalized, TF/FVIIa/FX complex assay, Ab 3.13 nM [11]: 5.6%
% of Normalized, TF/FVIIa/FX complex assay, Ab 6.25 nM [11]: 7.8%
% of Normalized, TF/FVIIa/FX complex assay, Ab 12.5 nM [11]: 11.4%
% of Normalized, TF/FVIIa/FX complex assay, Ab 25 nM [11]: 57.7%
% of Normalized, TF/FVIIa/FX complex assay, Ab 50 nM [11]: 94.6%
% of Normalized, TF/FVIIa/FX complex assay, Ab 100 nM [11]: 99.9%
A405, TF/FVIIa/FX complex assay, Ab 1.56 nM [12]: 0.041
A405, TF/FVIIa/FX complex assay, Ab 3.13 nM [12]: 0.048
A405, TF/FVIIa/FX complex assay, Ab 6.25 nM [12]: 0.067
A405, TF/FVIIa/FX complex assay, Ab 12.5 nM [12]: 0.097
A405, TF/FVIIa/FX complex assay, Ab 25 nM [12]: 0.489
A405, TF/FVIIa/FX complex assay, Ab 50 nM [12]: 0.803
A405, TF/FVIIa/FX complex assay, Ab 100 nM [12]: 0.847
B4: clone 12 (antibody, V domains shown)
VH: B1 VH with S49G, Y57H, N102H
VL: B1 VL with Q27P
notes: human IgG4/kappa IgG as purified; also called No. 12 antibody
